According to article doi:10.1101/442517 (bioRxiv, 2018):

Columns and labels:
[1] = biological target: RaxX21-nY (non-sulfated synthetic 21-residue derivative of RaxX, residues 35-55) (Xanthomonas oryzae pv. oryzae); assay: MST
[2] = biological target: RaxX21-sY (tyrosine sulfated synthetic 21-residue derivative of RaxX, residues 35-55) (Xanthomonas oryzae pv. oryzae); assay: MST

B1: XA21 extracellular domain (XA21^ECD; XA21 residues 23-649) (domain or fragment)
chain: SDDDGDAAGDELALLSFKSSLLYQGGQSLASWNTSGHGQHCTWVGVVCGRRRRRHPHRVVKLLLRSSNLSGIISPSLGNLSFLRELDLGDNYLSGEIPPELSRLSRLQLLELSDNSIQGSIPAAIGACTKLTSLDLSHNQLRGMIPREIGASLKHLSNLYLYKNGLSGEIPSALGNLTSLQEFDLSFNRLSGAIPSSLGQLSSLLTMNLGQNNLSGMIPNSIWNLSSLRAFSVRENKLGGMIPTNAFKTLHLLEVIDMGTNRFHGKIPASVANASHLTVIQIYGNLFSGIITSGFGRLRNLTELYLWRNLFQTREQDDWGFISDLTNCSKLQTLNLGENNLGGVLPNSFSNLSTSLSFLALELNKITGSIPKDIGNLIGLQHLYLCNNNFRGSLPSSLGRLKNLGILLAYENNLSGSIPLAIGNLTELNILLLGTNKFSGWIPYTLSNLTNLLSLGLSTNNLSGPIPSELFNIQTLSIMINVSKNNLEGSIPQEIGHLKNLVEFHAESNRLSGKIPNTLGDCQLLRYLYLQNNLLSGSIPSALGQLKGLETLDLSSNNLSGQIPTSLADITMLHSLNLSFNSFVGEVPTIGAFAAASGISIQGNAKLCGGIPDLHLPRCCPLLENRK
- Kd [1]: 400 nM
- Kd [2]: 20 nM
